Entries after “also recorded” stand apart in the source; their conditions may differ.
Key:
[1] = molecular target: His-tagged pantothenate synthetase with a C-terminal extension (PS-[LCGR]), expressed from pCA24N(-GFP) (E. coli); assay: ITC
[2] = molecular target: His-tagged YfcD (putative Nudix hydrolase) expressed from pCA24N(-GFP) (E. coli); assay: ITC
[3] = molecular target: His-tagged YfcD (putative Nudix hydrolase) expressed from pCA24N(-GFP); assay: fluorescence polarisation

With “His-tagged YfcD (putative Nudix hydrolase) expressed from pCA24N(-GFP) (natural protein)” as the molecule, how does the Kd [1] read?
Its Kd is 30 µM.

Which Kd [2] does the source give for “His-tagged pantothenate synthetase expressed from pET28a (from UniProt P31663 1-283) (enzyme)” here?
The Kd was 2.11 µM.

B1: FITC-labelled His-tagged pantothenate synthetase (pET28a), labelled by sortase on the N-terminal glycine (protein)
chain: MLIIETLPLLRQQIRRLRMEGKRVALVPTMGNLHDGHMKLVDEAKARADVVVVSIFVNPMQFDRPEDLARYPRTLQEDCEKLNKRKVDLVFAPSVKEIYPNGTETHTYVDVPGLSTMLEGASRPGHFRGVSTIVSKLFNLVQPDIACFGEKDFQQLALIRKMVADMGFDIEIVGVPIMRAKDGLALSSRNGYLTAEQRKIAPGLYKVLSSIADKLQAGERDLDEIITIAGQELNEKGFRADDIQIRDADTLLEVSETSKRAVILVAAWLGDARLIDNKMVELA
B1 was tested. Which K0.5 [3] did it give?
Its K0.5 is “K0.5 = 1.87 ± 0.08 μM; also recorded: K0.5 2.16 ± 0.11 μM”.

Source: paper PMC5963676
